Measured values reported in IntAct's records for PubMed 31515488.

B1: Phosphoserine phosphatase (Homo sapiens), P78330 (parent)
chain: MVSHSELRKLFYSADAVCFDVDSTVIREEGIDELAKICGVEDAVSEMTRRAMGGAVPFKAALTERLALIQPSREQVQRLIAEQPPHLTPGIRELVSRLQERNVQVFLISGGFRSIVEHVASKLNIPATNVFANRLKFYFNGEYAGFDETQPTAESGGKGKVIKLLKEKFHFKKIIMIGDGATDMEACPPADAFIGFGGNVIRQQVKDNAKWYITDFVELLGELEE
partner: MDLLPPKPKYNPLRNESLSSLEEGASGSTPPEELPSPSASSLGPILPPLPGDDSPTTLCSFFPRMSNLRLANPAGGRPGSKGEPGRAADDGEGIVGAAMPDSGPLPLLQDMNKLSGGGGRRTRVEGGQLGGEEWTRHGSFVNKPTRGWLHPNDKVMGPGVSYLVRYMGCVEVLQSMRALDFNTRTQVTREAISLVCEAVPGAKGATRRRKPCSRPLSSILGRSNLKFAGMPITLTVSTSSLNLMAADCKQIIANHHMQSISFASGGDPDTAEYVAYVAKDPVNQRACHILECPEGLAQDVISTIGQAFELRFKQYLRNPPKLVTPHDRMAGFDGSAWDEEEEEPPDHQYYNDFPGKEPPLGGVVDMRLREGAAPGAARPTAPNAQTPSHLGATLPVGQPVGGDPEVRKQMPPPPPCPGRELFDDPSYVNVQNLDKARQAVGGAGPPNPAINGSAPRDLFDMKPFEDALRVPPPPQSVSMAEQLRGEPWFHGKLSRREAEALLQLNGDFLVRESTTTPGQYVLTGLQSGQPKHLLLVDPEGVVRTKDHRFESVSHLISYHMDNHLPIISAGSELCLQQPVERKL
B2: Serine/threonine-protein kinase PAK 5 (Homo sapiens), Q9P286 (parent)
chain: MFGKKKKKIEISGPSNFEHRVHTGFDPQEQKFTGLPQQWHSLLADTANRPKPMVDPSCITPIQLAPMKTIVRGNKPCKETSINGLLEDFDNISVTRSNSLRKESPPTPDQGASSHGPGHAEENGFITFSQYSSESDTTADYTTEKYREKSLYGDDLDPYYRGSHAAKQNGHVMKMKHGEAYYSEVKPLKSDFARFSADYHSHLDSLSKPSEYSDLKWEYQRASSSSPLDYSFQFTPSRTAGTSGCSKESLAYSESEWGPSLDDYDRRPKSSYLNQTSPQPTMRQRSRSGSGLQEPMMPFGASAFKTHPQGHSYNSYTYPRLSEPTMCIPKVDYDRAQMVLSPPLSGSDTYPRGPAKLPQSQSKSGYSSSSHQYPSGYHKATLYHHPSLQSSSQYISTASYLSSLSLSSSTYPPPSWGSSSDQQPSRVSHEQFRAALQLVVSPGDPREYLANFIKIGEGSTGIVCIATEKHTGKQVAVKKMDLRKQQRRELLFNEVVIMRDYHHDNVVDMYSSYLVGDELWVVMEFLEGGALTDIVTHTRMNEEQIATVCLSVLRALSYLHNQGVIHRDIKSDSILLTSDGRIKLSDFGFCAQVSKEVPKRKSLVGTPYWMAPEVISRLPYGTEVDIWSLGIMVIEMIDGEPPYFNEPPLQAMRRIRDSLPPRVKDLHKVSSVLRGFLDLMLVREPSQRATAQELLGHPFLKLAGPPSCIVPLMRQYRHH
partner: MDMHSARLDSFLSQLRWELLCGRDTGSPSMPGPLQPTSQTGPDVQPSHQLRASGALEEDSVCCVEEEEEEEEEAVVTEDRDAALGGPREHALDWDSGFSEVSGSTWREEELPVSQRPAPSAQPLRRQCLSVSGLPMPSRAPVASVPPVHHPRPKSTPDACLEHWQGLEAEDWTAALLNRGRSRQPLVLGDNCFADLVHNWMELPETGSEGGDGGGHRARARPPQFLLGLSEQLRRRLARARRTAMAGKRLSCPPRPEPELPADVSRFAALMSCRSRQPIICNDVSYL
B3: Tuftelin-interacting protein 11 (Homo sapiens), Q9UBB9 (parent)
chain: MSLSHLYRDGEGRIDDDDDERENFEITDWDLQNEFNPNRQRHWQTKEEATYGVWAERDSDDERPSFGGKRARDYSAPVNFISAGLKKGAAEEAELEDSDDEEKPVKQDDFPKDFGPRKLKTGGNFKPSQKGFAGGTKSFMDFGSWERHTKGIGQKLLQKMGYVPGRGLGKNAQGIINPIEAKQRKGKGAVGAYGSERTTQSMQDFPVVDSEEEAEEEFQKELSQWRKDPSGSKKKPKYSYKTVEELKAKGRISKKLTAPQKELSQVKVIDMTGREQKVYYSYSQISHKHNVPDDGLPLQSQQLPQSGKEAKAPGFALPELEHNLQLLIDLTEQEIIQNDRQLQYERDMVVNLFHELEKMTEVLDHEERVISNLSKVLEMVEECERRMQPDCSNPLTLDECARIFETLQDKYYEEYRMSDRVDLAVAIVYPLMKEYFKEWDPLKDCTYGTEIISKWKSLLENDQLLSHGGQDLSADAFHRLIWEVWMPFVRNIVTQWQPRNCDPMVDFLDSWVHIIPVWILDNILDQLIFPKLQKEVENWNPLTDTVPIHSWIHPWLPLMQARLEPLYSPIRSKLSSALQKWHPSDSSAKLILQPWKDVFTPGSWEAFMVKNIVPKLGMCLGELVINPHQQHMDAFYWVIDWEGMISVSSLVGLLEKHFFPKWLQVLCSWLSNSPNYEEITKWYLGWKSMFSDQVLAHPSVKDKFNEALDIMNRAVSSNVGAYMQPGARENIAYLTHTERRKDFQYEAMQERREAENMAQRGIGVAASSVPMNFKDLIETKAEEHNIVFMPVIGKRHEGKQLYTFGRIVIYIDRGVVFVQGEKTWVPTSLQSLIDMAK
partner: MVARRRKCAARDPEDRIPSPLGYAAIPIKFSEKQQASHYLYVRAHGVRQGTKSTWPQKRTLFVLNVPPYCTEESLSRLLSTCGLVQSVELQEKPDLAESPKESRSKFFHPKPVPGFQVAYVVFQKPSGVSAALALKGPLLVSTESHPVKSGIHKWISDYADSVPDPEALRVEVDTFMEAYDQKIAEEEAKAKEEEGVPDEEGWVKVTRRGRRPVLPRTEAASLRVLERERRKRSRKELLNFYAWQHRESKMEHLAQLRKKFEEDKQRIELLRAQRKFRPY
B4: Thialysine N-epsilon-acetyltransferase (Homo sapiens), Q96F10 (parent)
chain: MASVRIREAKEGDCGDILRLIRELAEFEKLSDQVKISEEALRADGFGDNPFYHCLVAEILPAPGKLLGPCVVGYGIYYFIYSTWKGRTIYLEDIYVMPEYRGQGIGSKIIKKVAEVALDKGCSQFRLAVLDWNQRAMDLYKALGAQDLTEAEGWHFFCFQGEATRKLAGK
B5: TNFAIP3-interacting protein 3 (Homo sapiens), Q96KP6 (parent)
chain: MAHFVQGTSRMIAAESSTEHKECAEPSTRKNLMNSLEQKIRCLEKQRKELLEVNQQWDQQFRSMKELYERKVAELKTKLDAAERFLSTREKDPHQRQRKDDRQREDDRQRDLTRDRLQREEKEKERLNEELHELKEENKLLKGKNTLANKEKEHYECEIKRLNKALQDALNIKCSFSEDCLRKSRVEFCHEEMRTEMEVLKQQVQIYEEDFKKERSDRERLNQEKEELQQINETSQSQLNRLNSQIKACQMEKEKLEKQLKQMYCPPCNCGLVFHLQDPWVPTGPGAVQKQREHPPDYQWYALDQLPPDVQHKANGLSSVKKVHP

Variants of: B1
Conditions: with shc1_human SHC1, P29353

Variant	effect of a mutation on the interaction
T152I	with no effect
T149M	with no effect

Variants of: B2
Conditions: with inka1_human INKA1, Q96EL1

Variant	effect of a mutation on the interaction
S511N	with no effect

Variants of: B3
Conditions: with rrp7a_human RRP7A

Variant	effect of a mutation on the interaction
M140V	with no effect

Variants of: B4
Conditions: with sat1_human SAT1, P21673
sat1_human SAT1, P21673, sequence (P21673 whole entry): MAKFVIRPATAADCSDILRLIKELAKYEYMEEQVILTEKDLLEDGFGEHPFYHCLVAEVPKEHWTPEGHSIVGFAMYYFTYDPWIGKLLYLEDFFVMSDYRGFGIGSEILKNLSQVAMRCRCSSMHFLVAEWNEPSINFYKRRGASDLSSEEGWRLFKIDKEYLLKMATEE

Variant	effect of a mutation on the interaction
R126C	disrupting interaction strength

Variants of: B5
Conditions: with taxb1_human TAX1BP1, Q86VP1
taxb1_human TAX1BP1, Q86VP1, sequence (Q86VP1 whole entry): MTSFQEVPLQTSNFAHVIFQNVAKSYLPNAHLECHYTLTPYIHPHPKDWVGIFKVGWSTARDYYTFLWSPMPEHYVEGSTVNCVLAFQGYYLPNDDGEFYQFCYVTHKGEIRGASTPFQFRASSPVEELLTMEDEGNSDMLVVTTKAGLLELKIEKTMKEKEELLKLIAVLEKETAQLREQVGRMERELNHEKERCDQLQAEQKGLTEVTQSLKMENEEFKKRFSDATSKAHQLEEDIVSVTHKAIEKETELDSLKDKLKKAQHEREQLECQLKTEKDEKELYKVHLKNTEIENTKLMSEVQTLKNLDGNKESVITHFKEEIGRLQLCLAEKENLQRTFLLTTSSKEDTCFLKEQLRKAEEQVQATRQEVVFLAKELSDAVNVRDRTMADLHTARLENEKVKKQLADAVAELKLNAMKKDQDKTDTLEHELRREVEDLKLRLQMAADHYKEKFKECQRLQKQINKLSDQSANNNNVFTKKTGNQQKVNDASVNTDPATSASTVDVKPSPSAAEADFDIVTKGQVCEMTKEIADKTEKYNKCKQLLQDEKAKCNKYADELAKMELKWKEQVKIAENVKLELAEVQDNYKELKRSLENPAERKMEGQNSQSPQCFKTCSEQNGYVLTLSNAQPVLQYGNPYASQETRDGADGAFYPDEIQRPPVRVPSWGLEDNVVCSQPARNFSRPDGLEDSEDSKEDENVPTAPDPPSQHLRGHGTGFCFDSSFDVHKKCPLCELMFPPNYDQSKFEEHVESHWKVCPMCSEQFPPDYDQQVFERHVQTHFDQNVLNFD

Variant	effect of a mutation on the interaction
K99E	with no effect
